Data on 15 substances can be found in patent US11548914B2, “IL-2Rgamma binding compounds” (MEDIKINE, INC., priority 2018, dated 2023).

Ends that are not written are not given here.

Assay [1] addresses T1, extracellular domain (ECD) of IL-2Rβ (Homo sapiens, UniProt P14784).
T1 construct: Fc; purchased ACRObiosystems, Inc. ILB-H5253
T1 sequence (P14784 27-239): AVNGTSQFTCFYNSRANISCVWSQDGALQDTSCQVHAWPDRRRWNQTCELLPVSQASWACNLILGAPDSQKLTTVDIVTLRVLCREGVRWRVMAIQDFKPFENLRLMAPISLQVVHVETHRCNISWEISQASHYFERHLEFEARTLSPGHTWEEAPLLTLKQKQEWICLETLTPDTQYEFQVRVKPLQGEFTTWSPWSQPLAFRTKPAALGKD
The experiment in a line: competitive binding of synthetic peptides against phage clones on IL-2Rβ. The note with it: for competition with phage clone peptide SEQ ID NO: 58: phage family 1; for competition with phage clone peptide SEQ ID NO: 170: phage family 2A; for competition with phage clone peptide SEQ ID NO: 83: phage family 2B; for competition with phage clone peptide SEQ ID NO: 1034: phage family 2C; for competition with phage clone peptide SEQ ID NO: 1044: phage family 4. The procedure: (§1) Representative phage clones displaying peptides from IL-2Rβ ligand families were bound to the extracellular domain (ECD) of IL-2Rβ immobilized in microtiter wells. Phage binding was conducted in the presence and absence of synthetic test peptides to determine if phage peptides and test peptides competed for binding to the same sites on IL-2Rβ . Synthetic test peptides were selected to represent peptides from IL-2Rβ ligand families, as well positive and negative control peptides.
(§2) Phage binding to the immobilized IL-2Rβ ECD was detected by staining with antibody against phage coat proteins (anti-phage Ab), staining with labeled secondary antibody against the anti-phage Ab, and scored by reading OD in the microtiter plate optical reader.
(§3) The ELISA signal for each phage binding in the presence and absence of the test peptides was compared to determine which synthetic peptides competed with which phage peptides for binding to the IL-2Rβ subunit.

The next assay concerns the target T2, IL-2Rγc subunit (Homo sapiens, UniProt P31785).
T2 construct: Fc; purchased ACRObiosystems, Inc. ILG-H5256
T2 sequence (P31785 23-254): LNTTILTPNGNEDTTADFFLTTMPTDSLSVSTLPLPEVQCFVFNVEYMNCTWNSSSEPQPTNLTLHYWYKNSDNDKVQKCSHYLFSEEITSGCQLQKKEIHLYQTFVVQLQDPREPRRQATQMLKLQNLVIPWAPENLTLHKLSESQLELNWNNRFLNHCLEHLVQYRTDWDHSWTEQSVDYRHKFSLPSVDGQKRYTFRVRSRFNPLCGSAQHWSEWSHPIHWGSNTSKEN
The experiment in a line: competitive binding of synthetic peptides against phage clones on IL-2Rγc. The note with it: for competition with phage clone peptide SEQ ID NO 198: phage family 1A; for competition with phage clone peptide SEQ ID NO 224: phage family 1B; for competition with phage clone peptide SEQ ID NO 236: phage family 2; for competition with phage clone peptide SEQ ID NO 248: phage family 3; for competition with phage clone peptide SEQ ID NO 266: phage family 4; for competition with phage clone peptide SEQ ID NO 948: phage family 5. The method, then: as §1, §2, §3
A similar study was performed to evaluate the binding of IL-2Rγc ligands.

The subject of the next assay is NK-92 cells. The experiment in a line: STAT5 phosphorylation in NK-92 cells. The note with it: NK-92 cells, 10, 1, 0.1 μM, 30 min. It is filed as cell-based, human.

Method for NK-92 cells: NK-92 cells were seeded in a 24-well plate at 4×10^5 cells, in 1 mL starvation medium (SM), and incubated overnight at 37° C., 5% CO2. The starvation medium contained RPMI 1640+20% FBS+2 mM L-glutamine+1 mM NaPyr+10 mM HEPES+0.1 mM BME (no rhIL-2 supplement).
Treatment mixtures were of 1 μg/mL Anti-hIL-2 neutralizing antibody (0.2 mg/mL stock) or goat IgG control (1 mg/mL stock) were prepared.
The treatment mixtures and the antibody mix were added to the cells for 30 min at 37° C., 5% CO2. Each sample was then transferred to a 1.5 mL microfuge tube and spun down at 1,500 RPM for 5 minutes. The cells were washed in 1 mL PBS and centrifuged again.
A phosphatase and protease inhibitor cocktail (Thermo #78442) were added to mPER buffer at a 1:100 dilution. After the cells were pelleted, 50 μL of mPER buffer was added to each sample and pipetted repeatedly to homogenize.
The lysates were centrifuged at 14,000 RPM for 5 min at RT. The supernatants were transferred to clean tubes and stored frozen at −80° C.
The treatment reagents included Anti-STAT5 Antibody (rabbit), Cell Signaling No. 94205S; Anti-pSTAT5 Antibody (rabbit), Cell Signaling No. 4322S; and Goat anti-rabbit IgG-HRP, Jackson Immunoresearch No. 111-035-144.

Turning to 58 (YDCRIAQVGELCDL) [Peptide 58], in assay [1], the “competition with phage clone peptide SEQ ID NO: 58” value was “+^1 (Peptide competes with phage binding.)”, the “competition with phage clone peptide SEQ ID NO: 170” value is “+ (Peptide competes with phage binding.)”, the “competition with phage clone peptide SEQ ID NO: 83” value was “+ (Peptide competes with phage binding.)” and the “competition with phage clone peptide SEQ ID NO: 1034” value is reported as “+ (Peptide competes with phage binding.)”. In addition, the “competition with phage clone peptide SEQ ID NO: 1044” value in assay [1] is on record as “−”. Besides, in the assay with IL-2Rγc subunit, the “competition with phage clone peptide SEQ ID NO 198” value is “−”, the “competition with phage clone peptide SEQ ID NO 224” value is recorded as “−”, the “competition with phage clone peptide SEQ ID NO 236” value is given as “−” and the “competition with phage clone peptide SEQ ID NO 248” value is given as “−”. In the assay with IL-2Rγc subunit, the “competition with phage clone peptide SEQ ID NO 266” value is given as “−” and the “competition with phage clone peptide SEQ ID NO 948” value was “−”.
On to 58 (YDCRIAQVGELCDL) [compound 58], for which the “competition for binding to the IL-2Rγc binding site with the group of IL-2Rγc ligands” value with IL-2Rγc subunit was “does not compete”.
169 (NMCLVGDYWPSCQI) [Peptide 169]: in assay [1], the “competition with phage clone peptide SEQ ID NO: 58” value is given as “+ (Peptide competes with phage binding.)”, the “competition with phage clone peptide SEQ ID NO: 170” value is “+ (Peptide competes with phage binding.)”, the “competition with phage clone peptide SEQ ID NO: 83” value is reported as “+ (Peptide competes with phage binding.)” and the “competition with phage clone peptide SEQ ID NO: 1034” value was “+ (Peptide competes with phage binding.)”. Further, the “competition with phage clone peptide SEQ ID NO: 1044” value in assay [1] is “−”.
Turning to 202 (RTCTEWENVVLCWV) [Peptide 202], in the assay with IL-2Rγc subunit, the “competition with phage clone peptide SEQ ID NO 198” value is reported as “+^1 (Peptide competes with phage binding.)”, the “competition with phage clone peptide SEQ ID NO 224” value is “+ (Peptide competes with phage binding.)”, the “competition with phage clone peptide SEQ ID NO 236” value is “+ (Peptide competes with phage binding.)” and the “competition with phage clone peptide SEQ ID NO 248” value is listed as “+ (Peptide competes with phage binding.)”. Also, in the assay with IL-2Rγc subunit, the “competition with phage clone peptide SEQ ID NO 266” value is “+ (Peptide competes with phage binding.)” and the “competition with phage clone peptide SEQ ID NO 948” value is given as “−”.
On to 224 (DCSMWEGVELCW) [Peptide 224], for which, in assay [1], the “competition with phage clone peptide SEQ ID NO: 58” value is listed as “−”, the “competition with phage clone peptide SEQ ID NO: 170” value is reported as “−”, the “competition with phage clone peptide SEQ ID NO: 83” value was “−” and the “competition with phage clone peptide SEQ ID NO: 1034” value is reported as “−”. Besides, the “competition with phage clone peptide SEQ ID NO: 1044” value in assay [1] is on record as “−”. Moreover, in the assay with IL-2Rγc subunit, the “competition with phage clone peptide SEQ ID NO 198” value is reported as “+ (Peptide competes with phage binding.)”, the “competition with phage clone peptide SEQ ID NO 224” value is “+ (Peptide competes with phage binding.)”, the “competition with phage clone peptide SEQ ID NO 236” value is listed as “+ (Peptide competes with phage binding.)” and the “competition with phage clone peptide SEQ ID NO 248” value was “+ (Peptide competes with phage binding.)”. Moreover, in the assay with IL-2Rγc subunit, the “competition with phage clone peptide SEQ ID NO 266” value is given as “+ (Peptide competes with phage binding.)” and the “competition with phage clone peptide SEQ ID NO 948” value was “−”.
Take 224 (DCSMWEGVELCW) [compound 224]: the “competition for binding to the IL-2Rβ binding site with the group of IL-2Rβ ligands” value in assay [1] was “does not compete”.
236 (MCWLEWGEWVGSCL) [Peptide 236]: in the assay with IL-2Rγc subunit, the “competition with phage clone peptide SEQ ID NO 198” value is listed as “+ (Peptide competes with phage binding.)”, the “competition with phage clone peptide SEQ ID NO 224” value is given as “+ (Peptide competes with phage binding.)”, the “competition with phage clone peptide SEQ ID NO 236” value is “+ (Peptide competes with phage binding.)” and the “competition with phage clone peptide SEQ ID NO 248” value is on record as “+ (Peptide competes with phage binding.)”. For the same substance, in the assay with IL-2Rγc subunit, the “competition with phage clone peptide SEQ ID NO 266” value is on record as “+ (Peptide competes with phage binding.)” and the “competition with phage clone peptide SEQ ID NO 948” value is on record as “−”.
In the case of 248 (DLSDLCTFWLSQ) [Peptide 248], in the assay with IL-2Rγc subunit, the “competition with phage clone peptide SEQ ID NO 198” value is “+ (Peptide competes with phage binding.)”, the “competition with phage clone peptide SEQ ID NO 224” value is reported as “+ (Peptide competes with phage binding.)”, the “competition with phage clone peptide SEQ ID NO 236” value is reported as “+ (Peptide competes with phage binding.)” and the “competition with phage clone peptide SEQ ID NO 248” value is listed as “+ (Peptide competes with phage binding.)”. In addition, in the assay with IL-2Rγc subunit, the “competition with phage clone peptide SEQ ID NO 266” value is “+ (Peptide competes with phage binding.)” and the “competition with phage clone peptide SEQ ID NO 948” value is on record as “−”.
For the substance 948 (SLLKCYNASTCASVF) [Peptide 948], in the assay with IL-2Rγc subunit, the “competition with phage clone peptide SEQ ID NO 198” value was “−^2”, the “competition with phage clone peptide SEQ ID NO 224” value is listed as “−”, the “competition with phage clone peptide SEQ ID NO 236” value is given as “−” and the “competition with phage clone peptide SEQ ID NO 248” value is “−”. Besides, in the assay with IL-2Rγc subunit, the “competition with phage clone peptide SEQ ID NO 266” value is “−” and the “competition with phage clone peptide SEQ ID NO 948” value is “+ (Peptide competes with phage binding.)”.
948 (SLLKCYNASTCASVF) [compound 948]: the “competition for binding to the IL-2Rγc binding site with the group of IL-2Rγc ligands” value with IL-2Rγc subunit was “does not compete”.
1042 (CYEVGDYCQSPL) [Peptide 1042]: in assay [1], the “competition with phage clone peptide SEQ ID NO: 58” value was “+ (Peptide competes with phage binding.)”, the “competition with phage clone peptide SEQ ID NO: 170” value is on record as “+ (Peptide competes with phage binding.)”, the “competition with phage clone peptide SEQ ID NO: 83” value is recorded as “+ (Peptide competes with phage binding.)” and the “competition with phage clone peptide SEQ ID NO: 1034” value is recorded as “+ (Peptide competes with phage binding.)”. Further, in assay [1], the “competition with phage clone peptide SEQ ID NO: 1044” value is given as “−”.
For the substance 1044 (RSCYYKRPRLWCSE) [Peptide 1044], in assay [1], the “competition with phage clone peptide SEQ ID NO: 58” value is given as “−^2”, the “competition with phage clone peptide SEQ ID NO: 170” value was “−”, the “competition with phage clone peptide SEQ ID NO: 83” value is on record as “−” and the “competition with phage clone peptide SEQ ID NO: 1034” value was “−”. In addition, the “competition with phage clone peptide SEQ ID NO: 1044” value in assay [1] is “−”.
On to 1044 (RSCYYKRPRLWCSE) [compound 1044], for which, in assay [1], the “competition for binding to the IL-2Rβ binding site with the group of IL-2Rβ ligands” value is reported as “does not compete”.
For the substance “Compound A: heterodimer of SEQ. ID. NO: 58 and SEQ ID. NO. 224 (chain 1 YDCRIAQVGELCDL; chain 2 DCSMWEGVELCW; cysteine pairing not given here; also: heterodimer, linkage not given here)”, the “STAT5 phosphorylation (pSTAT5), Western Blot” value in the assay on NK-92 cells is “induced (in a dose-responsive manner) STAT5 phosphorylation”.
Turning to “Compound B: heterodimer of SEQ. ID. NO: 58 and SEQ ID. NO. 237 (chain 1 YDCRIAQVGELCDL; chain 2 LCFSEFLGEWVDCN; cysteine pairing not given here; also: heterodimer, linkage not given here)”, in the assay on NK-92 cells, the “STAT5 phosphorylation (pSTAT5), Western Blot” value is reported as “induced (in a dose-responsive manner) STAT5 phosphorylation”.
